Data as given in the RNAGym collection of RNA variant scans (doi:10.1093/molbev/msab373).

B1: Azoarcus group I ribozyme (parent)
chain: GUGCCUUGCGCCGGGAAACCACGCAAGGGAUGGUGUCAAAUUCGGCGAAACCUAAGCGCCCGCCCGGGCGUAUGGCAACGCCGAGCCAAGCUUCGGCGCCUGCGCCGAUGAAGGUGUAGAGACUAGACGGCACCCACCUAAGGCAAACGCUAUGGUGAAGGCAUAGUCCAGGGAGUGGCGAAAGUCACACAAACCGG

Variants of: B1
Assay: reverse-splicing fitness (ratio to wild type); higher = more active; in vitro selection; Mg2+ level not given
Method in brief: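 An in vitro group I ribozyme library with randomized positions was T7-transcribed and gel-purified. In triplicate, 10 pmol RNA in EPPS pH 7.5 was reacted with 50 pmoles of a 30-nt RNA substrate for 1 h at 37 °C across several added MgCl2 levels (1–48 mM), then stopped with EDTA. Products were reverse transcribed from a substrate-complementary primer, PCR-amplified and sequenced (HiSeq 4000). Fitness is a variant's read proportion after selection over that before, normalised to wild type.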

Row | Variant | reverse-splicing fitness
1 | C82U A111C A145U C150A C169G U176G | 0.00796
2 | C82U A111C A145U C150A C169G U176A | 0.0138
3 | C82U A111C A145U C150A C169G U176C | 0.0178
4 | C82U A111C A145U C150A U176C | 0.022
5 | C82U A111C A145U C150A U176G | 0.00817
6 | C82U A111C A145U C150A U176A | 0.0153
7 | C82U A111C A120U A145G C169U | 0.00448
8 | C82U A111C A120U A145G C169A | 0.00276
9 | C82U A111C A120U A145G C169G | 0.0042
10 | C82U A111C A145G C150U C169A U176G | 0.00752
11 | C82U A111C A145G C150U C169A U176C | 0.013
12 | C82U A111C A145G C150U C169A U176A | 0.0141
13 | C82U A111C A120U C150A C169G | 0.00399
14 | C82U A111C A120U C150A C169U | 0.00491
15 | C82U A111C A120U C150A C169A | 0.00472
16 | C82U A111C A120U A145U C150G C169G U176G | 0.0024
17 | C82U A111C A120U A145U C150G C169G U176A | 0.00332
18 | C82U A111C A120U A145U C150G C169G U176C | 0.00224
19 | C82U A111C A145G C169U U176G | 0.00688
20 | C82U A111C A145G C169U U176A | 0.0178
21 | C82U A111C A145G C169U U176C | 0.0148

Row | Variant | reverse-splicing fitness
22 | C82U A111C A145G C169A U176C | 0.0298
23 | C82U A111C A145G C169A U176G | 0.00741
24 | C82U A111C A145G C169A U176A | 0.0231
25 | C82U A111C A145C C150U C169A | 0.00854
26 | C82U A111C A145C C150U C169U | 0.00891
27 | C82U A111C A145C C150U C169G | 0.00727
28 | C82U A111C A120U A145U C150G U176C | 0.00509
29 | C82U A111C A120U A145U C150G U176A | 0.00354
30 | C82U A111C A120U A145U C150G U176G | 0.00316
31 | C82U A111C A145U C150G C169G U176C | 0.00532
32 | C82U A111C A145U C150G C169G U176A | 0.00648
33 | C82U A111C A145C C150G U176G | 0.00264
34 | C82U A111C A145C C150G U176C | 0.0151
35 | C82U A111C A145C C150G U176A | 0.00961
36 | C82U A111C A120U A145U C150G | 0.00613
37 | C82U A111C A120U A145U C150A | 0.00535
38 | C82U A111C A120U A145U C150U | 0.0186
39 | C82U A111C A120U A145G C150U C169A | 0.00649
40 | C82U A111C A120U A145G C150U C169U | 0.00521
41 | C82U A111C A120U A145G C150U C169G | 0.00549
42 | C82U A111C A120U C150U C169U | 0.00505

Row | Variant | reverse-splicing fitness
43 | C82U A111C A120U C150U C169G | 0.00449
44 | C82U A111C A120U C150U C169A | 0.00496
45 | C82U A111C A145C C150G C169A U176G | 0.00657
46 | C82U A111C A145C C150G C169A U176C | 0.0077
47 | C82U A111C A145C C150G C169A U176A | 0.00873
48 | C82U A111C A120U U176A | 0.00719
49 | C82U A111C A120U U176C | 0.0103
50 | C82U A111C A120U U176G | 0.00301
51 | C82U A111C A120U A145G C150U C169G U176C | 0.00346
52 | C82U A111C A120U A145G C150U C169G U176A | 0.00475
53 | C82U A111C A120U A145G C150U C169G U176G | 0.0025
54 | C82U A111C A120U A145U C150G C169U | 0.00311
55 | C82U A111C A120U A145U C150G C169G | 0.00306
56 | C82U A111C A120U A145U C150G C169A | 0.00391
57 | C82U A111C A145U C150G C169A | 0.00756
58 | C82U A111C A145U C150G C169G | 0.00721
59 | C82U A111C A120U A145G C150G C169U U176C | 0.00661
60 | C82U A111C A120U A145G C150G C169U U176A | 0.0084
61 | C82U A111C A120U A145G C150G C169U U176G | 0.00411
62 | C82U A111C A145C C150A C169G U176G | 0.00743
63 | C82U A111C A145C C150A C169G U176C | 0.0205

Row | Variant | reverse-splicing fitness
64 | C82U A111C A145C C150A C169G U176A | 0.024
65 | C82U A111C A120U A145U C169A U176A | 0.00299
66 | C82U A111C A120U A145U C169A U176G | 0.00168
67 | C82U A111C A120U A145U C169A U176C | 0.00251
68 | C82U A111C A145G C150A C169G U176C | 0.0256
69 | C82U A111C A145G C150A C169G U176G | 0.00685
70 | C82U A111C A145G C150A C169G U176A | 0.014
71 | C82U A111C A120U C150A C169U U176C | 0.0037
72 | C82U A111C A120U C150A C169U U176G | 0.00241
73 | C82U A111C A120U C150A C169U U176A | 0.00699
74 | C82U A111C A145G C150G C169A | 0.0079
75 | C82U A111C A145G C150G C169G | 0.00689
76 | C82U A111C A145G C150G C169U | 0.00879
77 | C82U A111C A120U A145G C150G C169G U176A | 0.00829
78 | C82U A111C A120U A145G C150G C169G U176G | 0.00376
79 | C82U A111C A120U A145G C150G C169G U176C | 0.00782
80 | C82U A111C A120U A145G C169U U176C | 0.00342
81 | C82U A111C A120U A145G C169U U176A | 0.00527
82 | C82U A111C A120U A145G C169U U176G | 0.00206
83 | C82U A111C A120U A145G C169G U176A | 0.00323
